Results as given in patent US7166691B2, “Saposin C and receptors as targets for treatment of benign and malignant disorders” (priority 2002, dated 2007).

Tests used:
prosaposin = settings: LNCaP and normal prostate stromal cells; 0.1, 1, 10 nM; 24 h
[1] = tested on: normal prostate stromal cells; settings: NaSe 10 μM, 48 h
[2] = tested on: enzymes in the MAPK signaling transduction pathway (MEK1/2, p42/44, p90RSK); assay: Activation of MAPK signaling transduction pathway (phospho-specific Western); format: cell-based, human; settings: PC-3, DU-145, LNCaP
Method: (§1) Cells were grown to 80% confluency by incubating in their respective serum-free basal media for 18 h. For each cell line, tissue culture plates were pre-treated with a specific MEK1/2 inhibitor (U0126, Cat.# 9903, Cell Signaling Technology, Beverly, Mass.) at 10 μM for 1.5 h. Saposin C and TX14A were added at the following concentrations: 0.1, 1.0, and 10 nM. The cells were then incubated at 37° C. for 5 min, washed, and lysed on ice in RIPA buffer supplemented with protease inhibitors and 1 mM sodium orthovandate, as described in S. Koochekpour et al., 1999. Clarified cell lysates were subjected to Western analysis using phospho-specific antibodies against three enzymes in the MAPK Pathway: MEK1/2 (Ser217/22; Cat.# 9121; Cell Signaling Technology, Beverly, Mass.); p90RSK (p90^rsk, Ser380, Cat# 9341, Cell Signaling Technology); and p42/44 MAP Kinases (p44^MAPK, p42^MAPK; Thr202/Tyr204, Cat# 9102; Cell Signaling Technology). Primary antibodies against p42/44 MAP kinase (Cell Signaling Technology) or against tubulin (Cat# 12463, Santa Cruz Biotechnology, Santa Cruz, Calif.) were used as controls. To quantify the difference between the control and the various treatments, the autoradiograms were read on a densitometer, an Alpha Imager 2000 (Alpha Innotech Corp., San Leandro, Calif.).

LNCaP [3] = assay: Transwell Matrigel cell invasion assay; format: cell-based, human; settings: saposin C 0.1-10 nM, 16 h
Method: (§2) To test the effect of saposin C on prostatic cell migration and invasion, cell migration and invasion assays were performed using 24-well transwell units with 8-μm polycarbonate filters (Costar, purchased from Becton Dickinson, Bedford, Mass.), as described in S. Koochekpour et al., “Met and […] expression in human glioma,” Cancer Res., vol. 57, pp. 5391–5398 (1997). For invasion assays, transwell filters were coated with 20 μg GFR-Matrigel matrix (Becton Dickenson) in 100 μl of basal medium, and left to air dry overnight. To the lower compartment of each transwell unit, was added 400 μl of basal media supplemented with 0.5% FBS and 0.1% BSA. Saposin C was then added to the lower compartment in the following concentrations: 0 (control), 0.1 nM, 1 nM, and 10 nM.
(§3) Cultured cells were freshly harvested by trypsinization and counted. Approximately 5000 cells were resuspended in 100 μl of serum-free medium With 0.1% BSA, and were placed in the upper compartment of the transwell unit. After 16 h of incubation at 37° C., cells in both the upper and lower compartments were fixed in methanol and stained with Diff-Quick (Dade, Aguada, Puerto Rico). Non-migratory cells in the upper surface of the filter were removed by wiping with a cotton swab. Cells under the filter were counted. The results of cell migration are shown in FIG. 4A; and of cell invasion in FIG. 4B. Each bar represents the mean +/−SEM of three duplicate experiments, and samples from each experiment were counted at least three times.

PC-3 [4] = assay: Transwell Matrigel cell invasion assay; format: cell-based, human; settings: saposin C 0.1-10 nM, 16 h
Method: as §2, §3

DU-145 [5] = assay: Transwell Matrigel cell invasion assay; format: cell-based, human; settings: saposin C 0.1-10 nM, 16 h
Method: as §2, §3

MEK1/2 = assay: Phospho-specific Western, MEK1/2; format: cell-based, human; settings: normal prostate epithelial cells; 0.1, 1.0, 10 nM
Method: as §1

[6] = tested on: prostate cancer cells and normal prostate cells; assay: Protection from NaSe-induced cell death, cell lines overall; format: cell-based, human; settings: dose dependent; NaSe 10 μM; 48 h
[7] = tested on: prostate (PC-3, DU-145, LNCaP), breast (MCF-7), lung (H1299), and colon (LoVo) cancer cells; assay: Cytotoxicity / cell number, all tested cancer cell lines incl. competitive inhibition; format: cell-based, human
Method: The conjugate of saporin and TX14A was made by special order by Advanced Targeting Systems with a 1:1 molar ratio between the peptide and saporin. Blank-SAP, a non-targeted saporin conjugate, was purchased as a control (ATS, Catalogue# IT-21). Exponentially growing cells were trypsinized and cultured in their complete culture media (1000/well in 96-well plates) as described in Example 1. After 1 day of incubation at 37° C., the culture media were supplemented with either TX14A, saporin, TX14A-saporin (conjugate), Saposin C, TX14A-saporin plus TX14A, or TX14A-Saporin plus Saposin C at the following concentrations: 0, 0.1, 1, 10, 100, 1000 nM. Three days after treatment, cell death was monitored with a Promega (Madison, Wis.) cell titer cytotoxicity kit. Cell counts were normalized to the media controls.

PC-3 cells = assay: Protection from NaSe-induced cell death (trypan blue exclusion); format: cell-based, human; settings: NaSe 10 μM, 48 h
[8] = tested on: soluble uPA receptor (uPAR); assay: Western blot of supernatant for soluble uPAR; format: cell-based, human; settings: normal prostate stromal cells, PC-3 and DU-145; 0.1, 1.0, 10 nM; 24 h
Method: (§4) To investigate the effect of saposin C on expression of both urokinase-type plasminogen activator (uPA) and the soluble uPA receptor (uPAR), normal prostate stromal cells and prostatic cancer cells (PC-3, DU-145, LNCaP) were cultured in media as described in Example 1. The cells were cultured in the preferred media up to 80% confluency, then washed twice with PBS, and incubated for 24 h at 37° C. in serum-free medium supplemented with either 0, 0.1, 1.0 or 10 nM saposin C. At the end of the incubation period, the cell-conditioned medium (Supernatant) was collected. The Supernatants were concentrated 5-fold using Centriprep-3 concentrator (Amikon, Beverley, Mass.), and stored frozen in −70° C. until use.
(§5) A Western blot analysis was performed (as in Examples 2 and 6) using commercially available anti-uPA and anti-uPAR antibodies (Cat# 389 and Cat# 399R, respectively; American Diagnostica Inc., Greenwich, Conn.).

[9] = tested on: colon cancer cells (LoVo); assay: Transwell cell migration assay; format: cell-based, human; settings: saposin C 0.1-10 nM
Method: as §2, §3
(§6) To test the effect of saposin C on migration and invasion of non-prostatic cancer cells, assays using human breast cancer cell line (MCF-7), colon cancer cell line (LoVo), and lung cancer cell line (H1299) were performed in 24-well transwell units with polycarbonate filters as described above in Example 5.

[10] = tested on: lung cancer cells (H1299); assay: Transwell cell migration assay; format: cell-based, human; settings: saposin C 0.1-10 nM
Method: as §2, §3, §6

[11] = tested on: breast cancer cells (MCF-7); assay: Transwell cell migration assay; format: cell-based, human; settings: saposin C 0.1-10 nM
Method: as §2, §3, §6

[12] = tested on: pro-cathepsin D and cathepsin D; assay: Western blot of culture supernatant for cathepsin D expression; format: cell-based, human; settings: LNCaP and normal prostate stromal cells; 0.1, 1, 10 nM; 24 h; compared to control (0 nM)
PSA = assay: Western blot of supernatant for PSA expression in LNCaP cells; format: cell-based, human; settings: 24 h, at concentrations as low as 0.1 nM
Method: To investigate the effect of saposin C on the expression of PSA in LNCaP cells, cells were cultured in the preferred media up to 80% confluency, and then washed twice with PBS. The cells were incubated in serum-free medium supplemented with either testosterone (T), dihydrotestosterone (DHT), saposin C or TX14A at the following concentrations: 0, 0.1, 1 or 10 nM. […] The supernatants were concentrated 5-fold using Centriprep-3 concentrator (Amikon, Beverley, Mass.) and stored frozen in −70° C. until use. A Western blot analysis was performed (as in Examples 2 and 6) using commercially available anti-PSA (Santa Cruz Biotechnology, Santa Cruz, Calif.).

[13] = tested on: normal prostate epithelial cells; assay: Cell proliferation (living cells, trypan blue exclusion); format: cell-based, human; settings: 0.1, 1.0, 10 nM, 2 days
Method: To test the effects of saposin C and TX14A on cell proliferation, various cells were cultured as described in Example 1, incubated in only fresh media, or in media supplemented with saposin C or with TX14A at concentrations of 0.1, 1.0, and 10 nM. After incubation for 2 days, the number of living cells was determined by trypan blue exclusion method, as described above in Example 3. The results are shown in FIG. 3, in which each point represents the mean +/−SEM of three duplicate experiments.

[14] = tested on: colon cancer cells (LoVo); assay: Transwell Matrigel cell invasion assay; format: cell-based, human; settings: saposin C 0.1-10 nM
Method: as §2, §3, §6

[15] = tested on: lung cancer cells (H1299); assay: Transwell Matrigel cell invasion assay; format: cell-based, human; settings: saposin C 0.1-10 nM
Method: as §2, §3, §6

[16] = tested on: breast cancer cells (MCF-7); assay: Transwell Matrigel cell invasion assay; format: cell-based, human; settings: saposin C 0.1-10 nM
Method: as §2, §3, §6

[17] = tested on: normal primary prostate epithelial cells; assay: Transwell cell migration assay; format: cell-based, human; settings: presence or absence of saposin C
Method: as §2, §3

LNCaP [18] = assay: Transwell cell migration assay; format: cell-based, human; settings: saposin C 0.1-10 nM, 16 h
Method: as §2, §3

PC-3 [19] = assay: Transwell cell migration assay; format: cell-based, human; settings: saposin C 0.1-10 nM in lower compartment, 16 h
Method: as §2, §3

DU-145 [20] = assay: Transwell cell migration assay; format: cell-based, human; settings: saposin C 0.1-10 nM, 16 h
Method: as §2, §3

p42/44 MAP Kinases = assay: Phospho-specific Western, p42/44 MAP kinases; format: cell-based, human
Method: as §1

[21] = tested on: urokinase-type plasminogen activator (uPA); assay: Western blot of supernatant for uPA; format: cell-based, human; settings: normal prostate stromal cells, PC-3 and DU-145; 0.1, 1.0, 10 nM; 24 h
Method: as §4, §5

p90RSK = assay: Phospho-specific Western, p90RSK; format: cell-based, human
Method: as §1

[22] = tested on: non-prostatic cancer cells (MCF-7, LoVo, H1299); assay: Transwell migration and invasion, all cells tested; format: cell-based, human
Method: as §2
as §3, with “Non-migratory cells in the upper surface of the filter were removed by wiping with a cotton swab.” left out, “The results of cell migration are shown in FIG. 4A; and of cell invasion in FIG. 4B.” left out, “times. […]” for “times.”

DU-145 cells = assay: Protection from NaSe-induced cell death (trypan blue exclusion); format: cell-based, human; settings: NaSe 10 μM, 48 h
[23] = tested on: normal prostate epithelial cells; assay: as above; format: cell-based, human; settings: NaSe 10 μM, 48 h
[24] = normal prostate epithelial cells, decreased at 0.1 nM, increased at 1.0 nM, decreased at 10 nM

## C[C@]12CCC(=O)C[C@@H]1CC[C@@H]1[C@@H]2CC[C@]2(C)[C@@H](O)CC[C@@H]12 [DHT, dihydrotestosterone]
prosaposin
  expression of prosaposin: stimulated the expression

## O=[Se]([O-])[O-].[Na+].[Na+] [NaSe, sodium selenium]
[1]
  toxic effect of NaSe: resistant

## C[C@]12CC[C@H]3[C@@H](CCC4=CC(=O)CC[C@@]43C)[C@@H]1CC[C@@H]2O [T, testosterone]
prosaposin
  expression of prosaposin: stimulated the expression

## N#CC(=C(/N)Sc1ccccc1N)/C(C#N)=C(\N)Sc1ccccc1N [U0126, reference compound]
[2]; U0126 10 μM pre-treatment 1.5 h, stromal
  inhibition of saposin C / TX14A activation of MAPK pathway enzymes: substantially inhibited

B1: saposin C: Human saposin C, about 8–13 kDa protein proteolytically generated from prosaposin; obtained from Professor K. Sandoff (protein, UniProt P07602 311-390, looked up)
Saposin-C: SDVYCEVCEFLVKEVTKLIDNNKTEKEILDAFDKMCSKLPKSLSEECQEVVDTYGSSILSILLEEVSPELVCSMLHLCSG
modifications: Saposin-C
notes: Human saposin C, about 8–13 kDa protein proteolytically generated from prosaposin; obtained from Professor K. Sandoff
LNCaP [3]
  stimulation of invasion: 48%
PC-3 [4]
  stimulation of invasion: 100%
DU-145 [5]
  stimulation of invasion: 70%
MEK1/2
  expression of MEK1/2 (phospho-MEK1/2 Western): dose-dependent increase
[6]
  degree of cell death in the presence of NaSe: decreased the degree of cell death
[7]; 0.1-1000 nM, three days, much greater effect in PC-3 and DU-145
  cell proliferation of all cancer cell lines: increased
[7]; equimolar mixture with TX14A-saporin, simultaneous treatment
  effect on TX14A-saporin cytotoxicity in competitive inhibition assays: inhibited in a dose dependent manner
PC-3 cells
  protective effect, difference in the percent cell death with and without saposin C: 55%
[8]
  extracellular level of uPAR: increased
[9]
  increase of migration: 22–59%
[10]
  increase of migration: 44–460%
[11]
  increase of migration: 12–59%
[12]
  expression of pro-cathepsin D (50 kDa band) and active mature cathepsin D (36 kDa band): stimulate expression
PSA
  extracellular level of PSA: significantly increased
[13]
  effect on growth: did not show any effect
[14]
  increase of invasion: 16–37%
[15]
  increase of invasion: 19–195%
[16]
  increase of invasion: 22–36%
[2]; normal prostate stromal cells, nanomolar concentrations, 5 min
  activation of the enzymes in the MAPK signaling transduction pathway: activated
[17]
  migration through the filter: neither migrated through the filter
LNCaP [18]
  stimulation of migration: 50%
PC-3 [19]
  stimulation of migration: more than 300%
DU-145 [20]
  stimulation of migration: 140%
p42/44 MAP Kinases; [24]
  pattern of p42/44 phosphorylation activity: biphasic pattern
p42/44 MAP Kinases; normal prostate stromal cells, densitometry
  increase in p42/44 phosphorylation as compared to the control: 15 fold
[21]
  extracellular level of uPA: increased
p90RSK; [24]
  pattern of p90RSK phosphorylation activity: biphasic pattern
p90RSK; normal prostate stromal cells
  pattern of p90RSK activity: biphasic pattern
[22]
  concentration at which the highest migration and invasion was seen: 1 nM
DU-145 cells
  protective effect, difference in the percent cell death with and without saposin C: 50%
[23]
  protection from cell death: Neither Saposin C nor TX14A protected
